Source: US9358023B2, “Systems and methods for opening of a tissue barrier” (priority 2009, dated 2016)

B1: BDNF: BDNF Human Recombinant produced in Escherichia Coli, homodimer, non-glycosylated, 2×119 amino acids, 27 kDa (protein, UniProt P23560 19-247, looked up)
Neurotrophic factor BDNF …: APMKEANIRGQGGLAYPGVRTHGTLESVNGPKAGSRGLTSLADTFEHVIEELLDEDQKVRPNEENNKDADLYTSRVMLSSQVPLEPPLLFLLEEYKNYLDAANMSMRVRRHSDPARRGELSVCDSISEWVTAADKKTAVDMSGGTVTVLEKVPVSKGQLKQYFYETKCNPMGYTKEGCRGIDKRHWNSQCRTTQSYVRALTMDSKKRIGWRFIRIDTSCVCTLTIKRGR
modifications: E. coli-expressed, non-glycosylated homodimer
notes: BDNF Human Recombinant produced in Escherichia Coli, homodimer, non-glycosylated, 2×119 amino acids, 27 kDa

How the values were obtained:
blood-brain barrier [1] = assay: Volume and duration of FUS-induced BBB opening with size-isolated microbubbles, by Gd-DTPA-BMA contrast-enhanced T1 MRI; type: in vivo, mice (C57BL/6)
Source text: Acoustic waves used were generated by a single-element, spherical-segment FUS transducer (center frequency: 1.5 MHz, focal depth: 60 mm, radius: 30 mm; Imasonic, France), which was driven by a function generator (Agilent, Palo Alto, Calif.) through a 50-dB power amplifier (E&I, Rochester, N.Y.) (for example as shown in FIG. 5). A central-void (radius: 11.2 mm) of the therapeutic transducer held a pulse-echo ultrasound transducer (center frequency: 10 MHz, focal length: 60 mm), which was used for imaging, with their two foci aligned. The imaging transducer was driven by a pulser-receiver (Olympus, Waltham, Mass.) connected to a digitizer (Gage Applied Technologies, Lachine, QC, Canada). A cone filled with degassed and distilled water was mounted onto the transducer system and was fitted with a polyurethane membrane (Trojan; Church & Dwight Co., Princeton, N.J.). The transducers were attached to a computer-controlled 3D positioning system (Velmex, Lachine, QC, Canada). The targeting procedure has been described herein. […]
BBB opening in the murine hippocampus was confirmed using a 9.4 T system (Broker Medical; Boston, Mass.). […] Vital signals were monitored and respiration rate was approximately 55 breaths/min. […] In the five cases where signal enhancement was detected on day 5, MRI sessions were repeated on day 7. […]

[2] = test system: phosphorylated TrkB receptor (pTrkB Y816 and Y515); assay: Immunohistochemistry DAB stain intensity after FUS and BDNF: phosphorylated TrkB; type: in vivo, mice (C57Bl6)
Method: (§1) Immunohistochemistry was performed only in the case of BDNF. Five primary antibodies were used: two against phosphorylated TrkB receptor (p-Y816 rabbit polyclonal [ab75173] and p-Y515, rabbit polyclonal [ab51187]) purchased from Abeam Inc. (Cambridge, Mass.), and three against phosphorylated Akt (p-S473 rabbit monoclonal [#4060]), phosphorylated MAPK (p-T202/T204 rabbit monoclonal [#4370]), and phosphorylated CREB (p-S133 rabbit monoclonal [#9198]), all purchased from Cell Signaling Technology (Danvers, Mass.). Slides containing thin frozen sections (5-10 μm) were dried and placed in a citrate buffer (pH 6.0) for antigen retrieval using a microwave. Slides were allowed to cool for 20 minutes prior to a PBS rinse (3×5 min) and then incubated in 0.3% hydrogen peroxide in PBS (five min) to block endogenous peroxidase activity. Slides were washed again in PBS (3×5 min) and blocked in 10% normal goat serum with 0.1% BSA for 20 minutes. After blocking solution was removed, the primary antibodies were diluted in DAKO antibody diluent solution (1:50-1:300) and incubated for 60 minutes at room temperature. Slides were washed in PBS for five min and incubated with biotinylated secondary antibody (goat anti-rabbit 1:200; Vector Laboratories, Burlingame, Calif.) for 30 minutes at room temperature. […]

[3] = test system: phosphorylated MAPK (T202-T204); assay: Immunohistochemistry DAB stain intensity after FUS and BDNF: phosphorylated MAPK; type: in vivo, mice (C57Bl6)
Method: as §1

[4] = test system: phosphorylated CREB (S133); assay: Immunohistochemistry DAB stain intensity after FUS and BDNF: phosphorylated CREB; type: in vivo, mice (C57Bl6)
Method: as §1

[5] = test system: phosphorylated Akt (S473); assay: Immunohistochemistry DAB stain intensity after FUS and BDNF: phosphorylated Akt; type: in vivo, mice (C57Bl6)
Method: as §1

[6] = in vivo; cited from earlier work
[7] = test system: ACHE (acetylcholine esterase); settings: dose-dependent induction of ACHE, rat basal forebrain primary septal culture; according to the supplier; cited from earlier work
blood-brain barrier [8] = assay: Delivery of Alexa Fluor 594-tagged BDNF across the FUS-opened BBB, fluorescence of brain sections; settings: mouse sacrificed 20 min after sonication
[9] = BDNF-administered mice, sacrificed 20-30 min, N=3

Molecule | time to peak signal enhancement in the sonicated hippocampus after IP injection (blood-brain barrier [1]) | mean percent change in DAB stain intensity between left and right hippocampal regions, pTrkB (Y515 and Y816 combined) [2, 9] [%] | difference in DAB intensity between left sonicated hippocampus and control, pTrkB ([2]; mouse expiring 3 min after BDNF injection) | mean percent change in DAB stain intensity between left and right hippocampal regions, pMAPK [3, 9] [%] | difference in DAB intensity between sonicated and control hippocampus, pMAPK ([3]; mouse sacrificed 3 min) | difference in DAB intensity between left sonicated hippocampus and control, pCREB ([4]; 3-min case) | mean percent change in DAB stain intensity between left and right hippocampal regions, pCREB [4, 9] [%] | difference in DAB intensity between left sonicated hippocampus and control, pAkt ([5]; 3-min case) | mean percent change in DAB stain intensity, pAkt, BDNF-administered mice vs control mice ([5]; sacrificed 20-30 min) | half-life of circulating BDNF [6] | ED50 [7] [µg/mL] | fluorescent intensity, sonicated hippocampus (left) vs un-sonicated hippocampus (right) (blood-brain barrier [8])
CNC(=O)CN(CCN(CCN(CC(=O)[O-])CC(=O)NC)CC(=O)[O-])CC(=O)[O-].[Gd+3] [Gd-DTPA-BMA] | approximately 1 h | – | – | – | – | – | – | – | – | – | – | –
B1 | – | 25.22 | observed | 60.58 | No difference in DAB intensity | not | 56.91 | not | similar | less than 10 min | 0.05 | much higher fluorescent intensity
